Where “and” joins values, the source holds several entries; their conditions need not be identical. Equal entries are not always repeated. Entries after “also recorded” stand apart in the source; their conditions may differ. Marks after values point to notes of the source that are not given here.
Experiments:
sEGFR = molecular target: T1, sEGFR (Homo sapiens, UniProt P00533); experiment: BIAcore, immobilized sEGFR; assay type: binding
T1 construct: sEGFR is the recombinant extracellular domain (amino acids 1-621) of the wild-type EGFR; host or cells: CHO cells
Protocol: In a second set of BIAcore™ experiments, sEGFR was immobilized on a CM microsensor chip at a surface density of ˜4000RU. Serial dilutions of mAbs were tested for reactivity with sEGFR.

DU145 cells = experiment: FACS binding to cell lines; assay type: cell-based, human
Description: Clearly, mAb806 and mAb175 can recognize only a small proportion of the EGFR on cells in the presence of an autocrine stimulation loop.

junction peptide = molecular target: T2, junction peptide (Homo sapiens, UniProt P00533, DELINS30-297G); experiment: dot-blot immune stain; assay type: binding
T2 construct: purchased Biosource, Camarillo, CA; host or cells: synthetic
Protocol: Dot-blot immune stain experiments were also performed. Serial dilutions of peptide were spotted in 0.5 μl onto a PVDF or nitrocellulose membranes. […] Control antibodies were also negative for peptide binding.

A431 xenografts [1] = experiment: combination therapy with AG1478, preventative model; assay type: in vivo, mice; conditions: 0.1 mg mAb806; 400 μg AG1478
Protocol: AG1478 (4-(3-Chloroanilino)-6,7-dimethoxyquinazoline) is a potent and selective inhibitor of the EGFR kinase versus HER2-neu and platelet-derived growth factor receptor kinase (Calbiochem Cat. No. 658552). […] The results are illustrated in FIG. 12. […] 400 μg AG1478 was administered at 0, 2, 4, 7, 9, and 11 days post xenograft.

[2] = tested on: panel of 12 different malignancies; experiment: immunohistochemistry of tumor panel; set-up: species or system human
Protocol: Immunohistochemical analysis was performed using […] sections of fresh frozen tissue applied to histology slides and fixed for 10 minutes in cold acetone. Bound primary antibody was detected with biotinylated horse anti-mouse antibody followed by an avidin-biotin-complex reaction. Diaminobenzidine tetra hydrochloride (DAB) was used as chromogen. The extent of the immunohistochemical reactivity in tissues was estimated by light microscopy and graded according to the number of immunoreactive cells in 25% increments as follows: • Focal=less than 5% • +=5-25% • ++=25-50% • +++=50-75% • ++++=>75%
The extent of de2-7 EGFR in other tumor types was examined using a panel of 12 different malignancies. […] This staining was strongly dependent on antibody concentration used and was considered nonspecific background reactivity.

wtEGFR on A431 cells = molecular target: T3, wtEGFR on A431 cells (Homo sapiens, UniProt P00533); experiment: Scatchard analysis on A431 cells; assay type: binding
T3 construct: A431 cells are human squamous carcinoma cells and express high levels of wtEGFR; host or cells: A431 human squamous (epidermoid) carcinoma cells
Protocol: All binding assays were performed in 1% HSA/PBS on 1-2×10^6 live U87MG.Δ2-7 or A431 cells for 90 min at 4° C. with gentle rotation. A set concentration of 10 ng/ml ^125I-labeled antibody was used in the presence of increasing concentrations of the appropriate unlabeled antibody. Non-specific binding was determined in the presence of 10,000-fold excess of unlabeled antibody. […] After the incubation was completed, cells were washed and counted for bound ^125I-labeled antibody using a COBRA II gamma counter (Packard Instrument Company, Meriden, CT, USA).

U87MG xenografts = experiment: established xenograft model; assay type: in vivo, nude mice; conditions: 1 mg per injection
Protocol: Tumor cells (3×10^6) in […] of PBS were inoculated subcutaneously into both flanks of 4-6 week old female nude mice (Animal Research Centre, Western Australia, Australia). […] Treatment was continued for a total of 6 doses, 3 times per week for 2 weeks. In the established model, treatment was started when tumors had reached a mean volume of 65±6.42 mm^3 (U87MG.Δ2-7), 84±9.07 mm^3 (U87MG), 73±7.5 mm^3 (U87MG.wtEGFR) or 201±19.09 mm^3 (A431 tumors). Tumor volume in mm^3 was determined using the formula (length×width^2)/2, where length was the longest axis and width the measurement at right angles to the length (Clark et al. (2000) Therapeutic efficacy of anti-Lewis (y) humanized 3S 193 radioimmunotherapy in a breast cancer model: enhanced activity when combined with Taxol chemotherapy. Clin. Cancer Res. 6, 3621-3628). Data was expressed as mean tumor volume±S.E. for each treatment group. Statistical analysis was performed at given time points using Student's t-test. Animals were euthanized when the xenografts reached an approximate volume of 1.5 cm^3 and the tumors excised for histological examination. This research project was approved by the Animal Ethics Committee of the Austin and Repatriation Medical Centre. […]

U87MG.DK cells = experiment: FACS binding to cell lines; assay type: cell-based, human
Protocol: Stained cells were analyzed with a FACS Calibur™ using Cell Quest™ software (Becton-Dickinson PharMingen). […] 1. Mouse IgG2a or IgG2b was used as an isotype control.

[3] = tested on: U87MG.wtEGFR brain xenografts; experiment: systemic treatment of intracranial xenografts; set-up: species or system nude mice; conditions: mouse, in vivo
Protocol: U87MG.ΔEGFR cells (1×10^5) or 5×10^5 LN-Z308.ΔEGFR, A1207.ΔEGFR, U87MG, U87MG.DK, and U87MG.wtEGFR cells in 5 μl of PBS were implanted into the right corpus stratum of nude mice brains as described previously (Mishima et al. (2000) A peptide derived from the non-receptor binding region of urokinase plasminogen activator inhibits glioblastoma growth and angiogenesis in vivo in combination with cisplatin. Proc. Natl. Acad. Sci. U.S.A. 97, 8484-8489).

A431 xenografts [4] = experiment: established xenograft model; assay type: in vivo, nude mice; conditions: day 13; 1 mg injection
Protocol: (§1) Tumor cells (3×10^6) in […] of PBS were inoculated subcutaneously into both flanks of 4-6 week old female nude mice (Animal Research Centre, Western Australia, Australia). […] Treatment was continued for a total of 6 doses, 3 times per week for 2 weeks. In the established model, treatment was started when tumors had reached a mean volume of 65±6.42 mm^3 (U87MG.Δ2-7), 84±9.07 mm^3 (U87MG), 73±7.5 mm^3 (U87MG.wtEGFR) or 201±19.09 mm^3 (A431 tumors). Tumor volume in mm^3 was determined using the formula (length×width^2)/2, where length was the longest axis and width the measurement at right angles to the length (Clark et al. (2000) Therapeutic efficacy of anti-Lewis (y) humanized 3S 193 radioimmunotherapy in a breast cancer model: enhanced activity when combined with Taxol chemotherapy. Clin. Cancer Res. 6, 3621-3628). Data was expressed as mean tumor volume±S.E. for each treatment group. Statistical analysis was performed at given time points using Student's t-test. Animals were euthanized when the xenografts reached an approximate volume of 1.5 cm^3 and the tumors excised for histological examination. This research project was approved by the Animal Ethics Committee of the Austin and Repatriation Medical Centre.
At day 13, when control animals were sacrificed, the mean tumor volume was 1142±120.06 mm^3 for the control group and 451±65.58 mm^3 for the 1 mg injection group (p<0.0001).

parental U87MG cells = experiment: binding of iodinated antibody to cells; set-up: species or system human
A431 xenografts [5] = experiment: preventative xenograft model; assay type: in vivo, nude mice
Protocol: as §1
These cells contain an amplified EGFR gene and express approximately 2×10^6 receptors per cell. […]

[6] = molecular target: T4, Peptide C: LEEKKGNYVVTDH(K-Biot)-OH (Homo sapiens, UniProt P00533, DELINS30-297G); experiment: BIAcore, immobilized Peptide C; assay type: binding; conditions: mAbL8A4 even at 6.25 nM; mAb806 up to 100 nM (highest tested)
T4 construct: purchased Biosource, Camarillo, CA; host or cells: synthetic
Protocol: Peptide C was immobilized on a Streptavidin microsensor chip at a surface density of 350RU (+/−30RU). Serial dilutions of mAbs were tested for reactivity with the peptide. Blocking experiments using non-biotinylated peptide were performed to assess specificity.

B1: mAb806: murine monoclonal antibody recognizing de2-7 EGFR and amplified EGFR; VH SEQ ID NO:2, VL SEQ ID NO:4 (antibody, listed as Mus musculus, V domains shown)
VH: MRVLILLWLFTAFPGVLSDVQLQESGPSLVKPSQSLSLTCTVTGYSITSDFAWNWIRQFPGNKLEWMGYISYSGNTRYNPSLKSRISITRDTSKNQFFLQLNSVTIEDTATYYCVTAGRGFPYWGQGTLVTVSA
VL: MVSTAQFLAFLLLWFPGARCDILMTQSPSSMSVSLGDTVSITCHSSQDINSNIGWLQQRPGKSFKGLIYHGTNLDDEVPSRFSGSGSGADYSLTISSLESEDFADYYCVQYAQFPWTFGGGTKLEIKR
sEGFR
  reactivity with denaturated sEGFR: strongly reactive
DU145 cells
  FACS binding: bind to DU145 cells
Junction peptide
  binding to peptide on membranes: did not bind peptide
A431 xenografts [1]
  tumor volume: significant reduction of tumor volume
[2]; Colonic carcinoma
  positive tumors/tumors tested: 0/10
[2]; Head + neck cancer (sqcc)
  positive tumors/tumors tested: 7/11
[2]; Leiomyosarcoma
  positive tumors/tumors tested: 0/5
[2]; Liposarcoma
  positive tumors/tumors tested: 0/5*
[2]; Lung (sqcc, adeno, neuroend)
  positive tumors/tumors tested: 6/12
[2]; Malignant melanoma metastases
  positive tumors/tumors tested: 0/10
[2]; Mammary gland
  positive tumors/tumors tested: 1/10
  staining grades of positive tumors: (foc)
[2]; Mfh Malignant fibrous histiocytoma
  positive tumors/tumors tested: 0/5*
[2]; Ovary (serous-papillary)
  positive tumors/tumors tested: 0/5
[2]; Seminoma
  positive tumors/tumors tested: 0/10
[2]; Synovial sarcoma
  positive tumors/tumors tested: 0/5*
[2]; Urinary bladder (tcc, sqcc, adeno)
  positive tumors/tumors tested: 3/10*
[2]; head and neck tumors
  tumors with positive staining: 64%
[2]; lung carcinomas
  tumors with positive staining: 50%
[2]; urinary tumors
  tumors with positive staining: 30%
wtEGFR on A431 cells
  receptors (binding sites) per cell: 2.4×10^5 receptors per cell and 2.3×10^5 receptors per cell
wtEGFR on A431 cells; average of three experiments
  affinity: 9.5e+07 M⁻¹
U87MG xenografts
  effect on xenograft growth: no effect
U87MG.DK cells
  FACS staining: reacted intensely
[3]
  effect on survival: slightly extended
  median survival: 23 days
A431 xenografts [4]
  mean tumor volume: 451±65.58 mm^3 and 450±70 mm^3
Parental U87MG cells
  binding of iodinated antibody: Neither ^125I-radiolabeled mAb806 or the DH8.3 antibody bound; also recorded: did not bind
A431 xenografts [5]; 0.1 mg
  effect on xenograft growth: inhibited significantly
A431 xenografts [5]; day 13, 1 mg injection
  mean tumor volume: 260±60.33 mm^3 and 260±60 mm^3
[6]
  reactivity with Peptide C: did not show detectable specific reactivity

— US20240117073A1, “METHODS OF TREATING NEOPLASTIC ASTROCYTOMA” (Ludwig Institute for Cancer Research Ltd., priority 2009, published 2024)
